# Results from the supplement of paper PMC10567573.
# B1: TCEB3B (parent)
# chain: STTALGDKQRKANESKGTRESWDS
# Variants of: B1
# Test: protein stability index of a GFP-peptide fusion (GPS, HEK-293T) (PSI 1-6); higher = more stable
# Conditions: c terminus: a fixed tail appended
# 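Further: lentivirally expressed fusions sorted by FACS into six bins by GFP to DsRed ratio, PSI derived from sequencing read proportions per bin multiplied by bin number.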
row,Variant,protein stability index
1,STTALGDKQRKANESKGTRLSWDS,4.6
2,STTALGDKQRKANESKGTRKSWDS,5.19
3,STTALGDKQRKANESKGTRFSWDS,4.6
4,STTALGDKQRKANESKGTRISWDS,4
5,STTALGDKQRKANESKGTRASWDS,4.82
6,STTALGDKQRKANESKGTRMSWDS,4.54
7,STTALGDKQRKANESKGTRGSWDS,5
8,STTALGDKQRKANESKGTRQSWDS,4.38
9,STTALGDKQRKANESKGTRDSWDS,4.76
10,STTALGDKQRKANESKGTRNSWDS,4.68
11,STTALGDKQRKANESKGTRTSWDS,4.86
12,STTALGDKQRKANESKGTRESGDS,5.53
13,STTALGDKQRKANESKGTRESCDS,5.1
14,STTALGDKQRKANESKGTRESYDS,5.6
15,STTALGDKQRKANESKGTRESHDS,5.45
16,STTALGDKQRKANESKGTRESMDS,5.53
17,STTALGDKQRKANESKGTRESNDS,5.83
18,STTALGDKQRKANESKGTRESQDS,5.47
19,STTALGDKQRKANESKGTRESPDS,5.54
20,STTALGDKQRKANESKGTRESTDS,5.24
21,STTALGDKQRKANESKGTRESDDS,5.42
22,STTALGDKQRKANESKGTRESFDS,5.38
23,STTALGDKQRKANESKGTRESADS,5.29
24,STTALGDKQRKANESKGTRESRDS,5.82

row,Variant,protein stability index
1,STTALGDKQRKANESKGTRESVDS,5.12
2,STTALGDKQRKANESKGTRESSDS,4.29
3,STTALGDKQRKANESKGTRESIDS,5.53
4,STTALGDKQRKANESKGTRESLDS,5.25
5,STTALGDKQRKANESKGTRESKDS,5.7
6,STTALGDKQRKANESKGTRESEDS,5.67
7,STTALGDKQRKANESKGTRESWMS,2.32
8,STTALGDKQRKANESKGTRESWNS,4.15
9,STTALGDKQRKANESKGTRESWHS,3.81
10,STTALGDKQRKANESKGTRESWVS,2.56
11,STTALGDKQRKANESKGTRESWRS,2.13
12,STTALGDKQRKANESKGTRESWPS,4.76
13,STTALGDKQRKANESKGTRESWAS,4.65
14,STTALGDKQRKANESKGTRESWES,1.82
15,STTALGDKQRKANESKGTRESWQS,3.51
16,STTALGDKQRKANESKGTRESWSS,1.78
17,STTALGDKQRKANESKGTRESWIS,2.69
18,STTALGDKQRKANESKGTRESWWS,3.59
19,STTALGDKQRKANESKGTRESWLS,1.98
20,STTALGDKQRKANESKGTRESWGS,2.83
21,STTALGDKQRKANESKGTRESWFS,3.93
22,STTALGDKQRKANESKGTRESWCS,1.98
23,STTALGDKQRKANESKGTRESWYS,4.07
24,STTALGDKQRKANESKGTRESWKS,2.47

row,Variant,protein stability index
1,STTALGDKQRKANESKGTRESWTS,1.05
2,STTALGDKQRKANESKGTREQWDS,5.22
3,STTALGDKQRKANESKGTREKWDS,4.97
4,STTALGDKQRKANESKGTREEWDS,4.99
5,STTALGDKQRKANESKGTRELWDS,4.99
6,STTALGDKQRKANESKGTREAWDS,5.05
7,STTALGDKQRKANESKGTREHWDS,5.02
8,STTALGDKQRKANESKGTREVWDS,4.84
9,STTALGDKQRKANESKGTRENWDS,5.19
10,STTALGDKQRKANESKGTRECWDS,4.57
11,STTALGDKQRKANESKGTRERWDS,4.82
12,STTALGDKQRKANESKGTREYWDS,5.09
13,STTALGDKQRKANESKGTREWWDS,4.34
14,STTALGDKQRKANESKGTREFWDS,4.18
15,STTALGDKQRKANESKGTREGWDS,5.25
16,STTALGDKQRKANESKGTREDWDS,5.1
17,STTALGDKQRKANESKGTRETWDS,3.57
18,STTALGDKQRKANESKGTREIWDS,4.93
19,STTALGDKQRKANESKGTREMWDS,5.23
20,STTALGDKQRKANESKGTREPWDS,5.24
21,STTALGDKQRKANESKGTWESWDS,4.17
22,STTALGDKQRKANESKGTQESWDS,4.49
23,STTALGDKQRKANESKGTVESWDS,5.14
24,STTALGDKQRKANESKGTPESWDS,4.84

row,Variant,protein stability index
1,STTALGDKQRKANESKGTYESWDS,3.37
2,STTALGDKQRKANESKGTSESWDS,4.94
3,STTALGDKQRKANESKGTTESWDS,4.89
4,STTALGDKQRKANESKGTRESWDA,4.38
5,STTALGDKQRKANESKGTRESWDF,4.38
6,STTALGDKQRKANESKGTRESWDY,4.46
7,STTALGDKQRKANESKGTRESWDT,4.58
8,STTALGDKQRKANESKGTRESWDW,4.59
9,STTALGDKQRKANESKGTRESWDD,4.54
10,STTALGDKQRKANESKGTRESWDE,3.93
11,STTALGDKQRKANESKGTRESWDN,4.57
12,STTALGDKQRKANESKGTRESWDH,3.97
13,STTALGDKQRKANESKGTRESWDC,4.07
14,STTALGDKQRKANESKGTRESWDP,4.99
15,STTALGDKQRKANESKGTRESWDM,4.34
16,STTALGDKQRKANESKGTRESWDL,4.37
17,STTALGDKQRKANESKGTRESWDG,4.89
18,STTALGDKQRKANESKGTRESWDI,4.26
19,STTALGDKQRKANESKGTRESWDR,3.94
20,STTALGDKQRKANESKGTRESWDV,4.62
21,STTALGDKQRKANESKGTRESWDQ,3.84
22,STTALGDKQRKANESKGTRESWDK,4.17
